# Assay results reported in publication PMC9674588, “Molecular recognition of a membrane-anchored HIV-1 pan-neutralizing epitope” (Communications Biology, 2022).
# Entries after “also recorded” stand apart in the source; their conditions may differ. Where no end group is shown, it is not given here.
# Legend:
# Fab 10E8 [1] = experiment: Binding of KK114-Fab 10E8 to single GUVs containing the peptides reconstituted (confocal microscopy); conditions: for Fab 10E8 binding vs TMD length and bilayer thickness (in words): GUVs of diC14:1PC, POPC, diC22:1PC
# Experimental: To that end, we quantified antibody binding to single vesicles by confocal microscopy of Giant Unilamellar Vesicles (GUVs) incubated with fluorescently labeled Fab 10E8[36],[47].
# Thus, to establish the influence of the bilayer thickness on the accessibility to the 10E8 epitope, we selected lipid bilayers made of diC14:1PC and diC22:1PC, which are respectively thinner and thicker than those made of POPC (C16:0-C18:1PC)[52],[53].
# To prepare lipid bilayers containing reconstituted peptide, lipids and MPER-TMD-derived peptides were mixed in organic solvent prior to the production of the liposomes. Briefly, POPC dissolved in chloroform:methanol 1:2 (vol:vol) was mixed with peptide dissolved in HFIP at the desired peptide-to-lipid molar ratio. The mixture was dried under a N2 stream and traces of organic solvents were removed by 1 h vacuum pumping. Subsequently, the dried lipid films were subjected to 2 h of gentle hydration with H2O using a N2 gas bubbler to facilitate further dispersion of the dried lipid-peptide film in PBS aqueous buffer. Next, the multilamellar vesicles were bath sonicated (1 h, 55 °C) and subjected to 15 freeze and thaw cycles to obtain unilamellar vesicles.
# For binding experiments, NBD-labeled GUVs were produced following the electro-formation method as previously described[47]. In brief, a total of 2 mM of lipid was dissolved in 200 μL CHCl3:CH3OH with the fluorescent probe NBD-PE (0.5%). When required, peptide dissolved in 10% (v/v) HFIP was included in the organic phase at 1:250 peptide-to-lipid molar ratio. The GUVs were added to a bovine serum albumin (BSA)-blocked microscope chamber that already included 250 nM of 10E8-based Fabs conjugated with the KK114 probe at residue C216HC, and were incubated for 15 min prior to imaging. […] Confocal microscopy images were acquired on an inverted confocal fluorescence microscope (Nikon Eclipse TE-2000, Nikon, Nikon Instruments, Tokyo, Japan). NBD-stained GUVs and Fabs conjugated with the KK114 probe were excited at 476 nm and 637 nm, respectively. […] The band pass filters used were 515/30 and Long Pass 650 nm. […]
# [2] = Infrared spectroscopy (amide I) of peptides reconstituted in lipid bilayers; assay type: physicochemical; conditions: for IR amide-I band area, 1630 cm^−1 (solvated helices) / IR amide-I band area, 1642 cm^−1 (helix-helix interactions/disordered) / IR amide-I band area, 1655 cm^−1 (α-helix) / IR amide-I band area, 1670 cm^−1 (turns): monounsaturated PC, D2O PBS
# Text: In addition, the lipid bilayer distance covered by the hydrocarbon acyl chains strongly conditions the favorable interactions between TMDs and lipids, so that a mismatch between this distance and the TMD length can give rise to alterations in the structure and function of the integral membrane proteins. Therefore, to rule out DC effects on the conformations adopted by the reconstituted MPER-TMD peptides, we performed IR experiments and varied systematically this parameter utilizing a complete series of monounsaturated PCs (i.e., diC14:1PC, diC16:1PC, diC18:1PC, diC20:1PC and diC22:1PC)[55].
# Infrared spectra were recorded in a Bruker Tensor 27 spectrometer equipped with a mercury-cadmium-telluride detector using a Peltier-based temperature controller (TempCon, BioTools Inc., Wauconda, IL) with calcium fluoride cells (BioCell, BioTools Inc., Wauconda, IL). Lipid vesicles with the peptides reconstituted were lyophilized and subsequently prepared at 3 mg/mL in D2O buffer (PBS). A 25 μL sample aliquot was deposited on a cell that was sealed with a second cell. Reference windows without peptide were prepared similarly. Typically, 1000 scans were collected for each background and sample, and the spectra were obtained with a nominal resolution of 2 cm^−1. Data treatment and band decomposition of the original amide I have been described elsewhere.
# [3] = Breakthrough force of POPC SPBs (FS-AFM); conditions: peptide-to-lipid 1:50
# Text: Permeabilization of single vesicles correlated with effects of the reconstituted peptides on the nanomechanical stability of SPBs analyzed by FS-AFM[57] (Fig. 6b). In this approach, we measured the breakthrough forces of the different SPBs to quantitatively determine the nanomechanical resistance to membrane rupture. By comparing the AFM tip indentations through the different bilayer systems at the same approach speed, we measured the discontinuity in the approach curve which corresponds to the breakthrough force; a parameter widely used to assign the mechanical stability of SPBs[57]. […] This increase was even larger than that observed in an SPB containing 50 mol % cholesterol, which was added as a stiffening-control sample to the analysis. […]
# SPBs were produced by the vesicle adsorption method and their topography analyzed using a Nanowizard III AFM (JPK Instruments) under contact mode. […]
# Force spectroscopy data for SPB breakthrough measurements were collected using SNL10 Si3N4 cantilever (Bruker, Santa Barbara, CA, USA) with a nominal spring constant of 0.35 N/m, at a speed of 1 µm/s and applying 10 nN of maximum force. Discontinuities in the force versus separation approach curve were determined for each of the indentation curves as reproducible jumps within the extended traces using JPK data processing software.
# Fab 10E8 [4] = experiment: AFM single-molecule force spectroscopy of Fab 10E8-peptide unbinding in POPC SPBs; assay type: binding; conditions: for MPRF (most probable rupture force), mean: 1:50
# Experimental: SPBs were produced by the vesicle adsorption method and their topography analyzed using a Nanowizard III AFM (JPK Instruments) under contact mode. Briefly, approximately 30 µl of the vesicle suspensions described above were deposited onto freshy cleaved mica disks (area 15 mm^2) preincubated with 30 µl of 150 mM KCl, 10 mM Tris, pH = 7.4 (measurement buffer) and incubated for 30 min at room temperature, leading to the formation of SPBs. The samples were carefully rinsed with measurement buffer before the AFM experiment and always kept under aqueous environment. BL-AC40-C2 Si3N4 cantilevers (Olympus, Japan) with a nominal spring constant of 0.09 N/m were used for bilayer imaging with 0.5 nN of force applied.
# For single molecule force spectroscopy, MLCT-BIO probes (Bruker, Santa Barbara, CA USA) were functionalized with Fab 10E8 using well established protocols. To that end, cantilevers were first rinsed with acetone and water, exposed to UV-ozone and coated with 3-Aminopropyldimethylethoxysilane (APDMES). They were then incubated with glutaraldehyde and finally with Fab. Finally, to passivate possible unreacted aldehyde moieties, cantilevers were incubated in 0.1% Bovine Serum Albumin (BSA) for 1 h at room temperature and rinsed in measurement buffer prior to use. Force maps were recorded using a maximum applied force of 0.2 nN, a varying contact time of 0.5, 1, 2 and 5 s and varying retraction speeds of 0.1 µm/s, 2 µm/s and 10 µm/s. Data were analyzed with the data processing software from JPK Instruments (Berlin, Germany).
# To determine the MPRF at a given loading rate the frequency histograms of the measured forces were fitted to a Gaussian distribution (Eq. 1) and its maximum calculated.1 y=Amplitude⋅exp−0.5⋅x−Mean/SD^2
# MPRF is a function of the loading rate as defined by (Eq. 2):2 MPRF=kβ⋅T/χβlnrf⋅χβ/koff⋅kβ⋅T where kβ is Boltzmann constant, T is the temperature, koff is the natural dissociation rate at zero force and rf is the loading rate.
# These parameters can be actually obtained from the slope of the linear fit of the data, and by linearly extrapolating the experimental data to zero external force, respectively.
# [5] = Vesicle flotation (incorporation of reconstituted peptides into membranes); assay type: physicochemical; conditions: POPC, 1:50 mol:mol, flotation in sucrose gradient, Western blot
# Text: Supplementary Figure 4: Incorporation of reconstituted peptides into membranes. (a) Diagram illustrating the Liposome flotation method. Liposome-peptide co mplex es were subjected to ultracentrifugation in a sucrose gradi ent after the reconstitution process. (b) The pres ence of th e peptides in the floated and non- floated fractions o f the gradient and in the original sample (input) as reveal ed b y Western Blot anal ysis aft er Tris -Tricine SDS-PAGE separation. Line plots below […]
# liposomes. The peptide-to-lipid ratio was 1:50 (mol:mol).
# (1 picture or pasted object on this page, not shown here)
# [6] = GUV permeabilization (soluble KK114 entry); conditions: POPC GUVs with peptide reconstituted
# Experimental: When required, peptide dissolved in 10% (v/v) HFIP was included in the organic phase at 1:250 peptide-to-lipid molar ratio. […] For GUV permeabilization assays, GUVs were added to a BSA-blocked microscope chamber that already included the unconjugated and soluble KK114 dye, and were incubated for 15 min prior to imaging. Confocal microscopy images were acquired on an inverted confocal fluorescence microscope (Nikon Eclipse TE-2000, Nikon, Nikon Instruments, Tokyo, Japan). […] The band pass filters used were 515/30 and Long Pass 650 nm. The objective used was a 63X oleo immersion with a numerical aperture (NA) of 1.2.
# [7] = hydrocarbon thickness DC 22.8 Å
# [8] = reconstituted in POPC bilayers, 1:50
Substance,Fab 10E8 binding vs TMD length and bilayer thickness (in words) (Fab 10E8 [1]),"IR amide-I band area, 1630 cm^−1 (solvated helices) ([2]; DC 25.6 Å) [%]","IR amide-I band area, 1642 cm^−1 (helix-helix interactions/disordered) ([2]; DC 25.6 Å) [%]","IR amide-I band area, 1655 cm^−1 (α-helix) ([2]; DC 25.6 Å) [%]","IR amide-I band area, 1670 cm^−1 (turns) ([2]; DC 25.6 Å) [%]","IR amide-I band area, 1630 cm^−1 (solvated helices) ([2]; DC 29 Å) [%]","IR amide-I band area, 1642 cm^−1 (helix-helix interactions/disordered) ([2]; DC 29 Å) [%]","IR amide-I band area, 1655 cm^−1 (α-helix) ([2]; DC 29 Å) [%]","IR amide-I band area, 1670 cm^−1 (turns) ([2]; DC 29 Å) [%]","IR amide-I band area, 1630 cm^−1 (solvated helices) ([2]; DC 32 Å) [%]","IR amide-I band area, 1642 cm^−1 (helix-helix interactions/disordered) ([2]; DC 32 Å) [%]","IR amide-I band area, 1655 cm^−1 (α-helix) ([2]; DC 32 Å) [%]","IR amide-I band area, 1670 cm^−1 (turns) ([2]; DC 32 Å) [%]","IR amide-I band area, 1630 cm^−1 (solvated helices) ([2]; DC 35 Å) [%]","IR amide-I band area, 1642 cm^−1 (helix-helix interactions/disordered) ([2]; DC 35 Å) [%]","IR amide-I band area, 1655 cm^−1 (α-helix) ([2]; DC 35 Å) [%]","IR amide-I band area, 1670 cm^−1 (turns) ([2]; DC 35 Å) [%]","IR amide-I band area, 1630 cm^−1 (solvated helices) [2, 7] [%]","IR amide-I band area, 1642 cm^−1 (helix-helix interactions/disordered) [2, 7] [%]","IR amide-I band area, 1655 cm^−1 (α-helix) [2, 7] [%]",other results
"C-MPER-TMD700: Env residues 671–700, HXB2 numbering, containing a minimal TMD anchor and Lys-tags added at both ends (NWFNITNWLWYIKLFIMIVGGLVGLRIVFA; also: Lys-tags added at both ends, length not given here; UniProt P04578 671-700, looked up, fragment)",C-MPER-TMDLLA-709 > C-MPER-TMD709 > C-MPER-TMD700,8.1,31.2,52.3,7,8.4,39.3,48.1,2.6,6.4,39.8,49.8,3.9,3.1,52,39.7,1,5.8,35.1,51.8,"IR amide-I band area, 1670 cm^−1 (turns) [2, 7]: 7.4%"
"C-MPER-TMD709: Env residues 671–709, HXB2 numbering, which included the nominal Env TMD sequence (Env residues 684–709) (NWFNITNWLWYIKLFIMIVGGLVGLRIVFAVLSIVNRVR; UniProt P04578 671-709, looked up, fragment)",C-MPER-TMDLLA-709 > C-MPER-TMD709 > C-MPER-TMD700,18.9,31,41.6,4.9,14,33.4,45.2,4.6,16,34.8,43.2,3.4,15.8,40,38.5,2.9,20,34.5,33.8,"breakthrough force (in words) [3]: increased the values of the forces at which rupture was observed; Fab 10E8 binding to GUVs (in words) (Fab 10E8 [1]; POPC GUVs, peptide-to-lipid 1:250, 250 nM Fab): appeared to bind more efficiently to C-MPER-TMD709-containing vesicles than to the N/C-MPER683-containing ones; koff ratio among peptides (Fab 10E8 [4]; N/C-MPER683 vs C-MPER-TMD709, POPC SPBs): ≈ 22; attachment (binding) frequency (in words) (Fab 10E8 [4]; POPC SPBs, vs N/C-MPER683, contact time series, retraction 2 μm s^−1): attachment appeared to occur at higher frequency; MPRF (in words) (Fab 10E8 [4]; POPC SPBs, contact time 0.5 s, loading rate 41 nN s^−1, vs N/C-MPER683): clearly shifted to higher values; t0.5(N/C-MPER)/t0.5(C-MPER-TMD) (Fab 10E8 [4]; interaction time for half maximal probability of binding, POPC SPBs): ≈ 1.4; MPRF (most probable rupture force), mean (Fab 10E8 [4]; ln (loading rate pN/s) 3.62033, POPC SPBs): 33.4766 pN; MPRF (most probable rupture force), mean (Fab 10E8 [4]; ln (loading rate pN/s) 4.62006, POPC SPBs): 53.13 pN; MPRF (most probable rupture force), mean (Fab 10E8 [4]; ln (loading rate pN/s) 6.62009, POPC SPBs): 93.3506 pN; MPRF (most probable rupture force), mean (Fab 10E8 [4]; ln (loading rate pN/s) 7.62012, POPC SPBs): 73.97 pN; MPRF (most probable rupture force), mean (Fab 10E8 [4]; ln (loading rate pN/s) 8.62012, POPC SPBs): 81.12 pN; MPRF (most probable rupture force), mean (Fab 10E8 [4]; ln (loading rate pN/s) 9.62012, POPC SPBs): 90.66 pN; MPRF (most probable rupture force), mean (Fab 10E8 [4]; ln (loading rate pN/s) 10.6201, POPC SPBs): 135 pN; IR amide-I band area, 1670 cm^−1 (turns) [2, 7]: 6.4%; IR amide-I absorption maximum [2, 8]: around 1650 cm^−1; IR amide-I band component [2, 8]: 1642 cm⁻¹; incorporation into membranes (in words) [5]: total incorporation; permeabilization (in words) [6]: viewed as empty spheres; also recorded: essentially impermeable"
